Legend:
1DD-Fn-v4 Monomers = experiment: flow cytometry titration on cells; apparent
Clone 3.2.20 = experiment: yeast display flow cytometry titration; apparent
Clone 3.2.1 = experiment: yeast display flow cytometry titration; estimated
Clone 3.2.22 = experiment: yeast display flow cytometry titration; estimated
Clone 3.2.16 = experiment: yeast display flow cytometry titration; estimated
Clone 3.2.17 = experiment: yeast display flow cytometry titration; estimated

B1: MCF-7 Cells (receptor)
chain: QEECVCENYKLAVNCFVNNNRQCQCTSVGAQNTVICSKLAAKCLVMKAEMNGSKLGRRAKPEGALQNNDGLYDPDCDESGLFKAKQCNGTSMCWCVNTAGVRRTDKDTEITCSERVRTYWIIIELKHKAREKPYDSKSLRTALQKEITTRYQLDPKFITSILYENNVITIDLVQNSSQKTQNDVDIADVAYYFEKDVKGESLFHSKKMDLTVNGEQLDLDPGQTLIYYVDEKAPEFSMQGLKAGVIAVIVVVVIAVVAGIVVLVISRKKRMAKYEKAEIKEMGEMHRELNA
1DD-Fn-v4 Monomers
  Kd: 34.8 nM

B2: EpCAM (receptor)
chain: QEECVCENYKLAVNCFVNNNRQCQCTSVGAQNTVICSKLAAKCLVMKAEMNGSKLGRRAKPEGALQNNDGLYDPDCDESGLFKAKQCNGTSMCWCVNTAGVRRTDKDTEITCSERVRTYWIIIELKHKAREKPYDSKSLRTALQKEITTRYQLDPKFITSILYENNVITIDLVQNSSQKTQNDVDIADVAYYFEKDVKGESLFHSKKMDLTVNGEQLDLDPGQTLIYYVDEKAPEFSMQGLK
modifications: biotinylated (site not stated)
Clone 3.2.20
  Kd: 140 nM
Clone 3.2.1
  Kd: 190 nM
Clone 3.2.22
  Kd: 190 nM
Clone 3.2.16
  Kd: 150 nM
Clone 3.2.17
  Kd: 130 nM

Reference: patent US20180251524A1 (published 2018)
